target: T1, GST-ATML1(30-134) (Arabidopsis thaliana) (UniProt Q8RWU4); experiment: EMSA; conditions: 15 mM Tris pH 7.5, 50 mM NaCl, 0.1 mM DTT, 5% glycerol, 0.1 mM MgCl2, 50 ng/ul carrier DNA, room temperature 30 min; 6% gel in 0.5x TBE at 4 C
T1 sequence: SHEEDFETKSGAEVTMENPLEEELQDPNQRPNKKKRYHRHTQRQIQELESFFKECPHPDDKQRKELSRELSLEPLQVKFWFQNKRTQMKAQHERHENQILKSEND

binding, binds:
ATGTGAATGAAGCCAAGAATCAGTTAATACTAAAGCTCAAGTGTGCAATATACATCACAATACCTTTGTCCTTGTTTCAGGTCTACTTTTACATCATAGAACTTGCTCCTATAGATAATACAATGCATGGTATTGACGTAAGAACTCTTAGCTTTTCATATTAGTAGCTTATAATGTTCCTTAAATGCGACATTGATATTAAGCTACTACTCAATAACTCAATGGTAACGAATCATAAGTCTGAACTATTCGAAAACAGTAATCCTGAAAAGAAA (double strand) [MIR171A-F1]
ATGTTGATTACCCATATACTTTGCTAGCGGCCGAAATGATCACTTTCATGATTTTTTTTTGCATAGGTTCATAAAACATATATTTACTTTTTTTTAAGGAAATATTAAATAAATGATAGGAACTTAACAAGAGAAGAAATAAATAGGGAGGGAGAATATTTGGAAAGTTGAGCCATATTAATTTCGAAATTCAAATGTATATTGGGAGTGGCACAACCCCACCAACATGCCTTGCTCTCTCTTACAAACCTCATAAATACTAAATTGAAAGCTCGTGGGA (double strand) [MIR171B-F3]
CCTCCTCAAGAAGGAAAGACAGAGGAGGAGACAAAGAAGTATAGGTTCACATTGCATAGCCAGTTTAGTTTTGAAGGATGGATATATGAAAAAAATATGAAGAGAGAGAAGAGAGAAGAAGAGGAGGATTAAAGAGGGTGAGGCCAGCTTTTGTGCTTTGGTAGTAGATGAGGTTTAAATGCTCCATACCTTCCATTTCCTTCTCTCTTACCCTAATTTAATTCTTCCTCTCCTTTATAACTCCCCACAGACATTCTCACT (double strand) [MIR171A-F3]
CCTGATAATTTGATATCATCGGTTGTAAAAACGAATATGTAATGTTACATTACTAATGTATAAAGTATAAACAAATATTATTATCTTTTGAAAAAAGTTTTTCATAGAAACAATTCAAATTTAATAAACCAACCTCCTTTTTGGTATGGGGTTGTTGGTCTAATTTAATGCTTGTCTCTTGCTTGCCTCTCTTCTTCAACCATCTTCGTATTTATATCTTCTTCTTCACTATGCATACTCATAAACTTTGCTACTGGCCGCAT (double strand) [MIR171B-F4]
GGGTTCATAACTTGCTTGAGGTTTTGTAAAAAGCAGAGAAAGAGAGAGAGAGGGGCCTAGAAAGAAAGAAAGAAAAGCAGTAAGAGACTATTAAATGTTGCAGGCAGGTCCAGCCAGTGTCCCCTCTCTTCTGCGAGATTCCCTCAAAATTTATTACAAAGCATCTTCATCGATGTTCTTTTAATTCTTCCTCAAAATCTTTTCTCTTTTTTTGGTTATATATATTTGAATTTTGATTTATGAACCTCCTCAAGAAGGAAA (double strand) [MIR171A-F2]
